The values that follow are results of earlier work, collected in PMC8033747.

The target in this series is CHMP3 (Homo sapiens) (UniProt Q9Y3E7). The series can be described thus: SPR. (In general: In SPR one partner is held on a chip, and binding of the other changes the refractive index at the surface.)
Chain of CHMP3 (Homo sapiens) (Q9Y3E7 2-222): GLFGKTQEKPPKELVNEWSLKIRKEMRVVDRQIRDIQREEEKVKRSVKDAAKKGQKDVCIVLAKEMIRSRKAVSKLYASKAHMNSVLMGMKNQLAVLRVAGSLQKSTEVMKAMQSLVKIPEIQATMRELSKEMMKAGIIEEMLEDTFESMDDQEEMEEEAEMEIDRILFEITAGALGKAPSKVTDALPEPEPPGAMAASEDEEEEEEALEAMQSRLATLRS

Chain of CHMP2A (O43633 whole entry): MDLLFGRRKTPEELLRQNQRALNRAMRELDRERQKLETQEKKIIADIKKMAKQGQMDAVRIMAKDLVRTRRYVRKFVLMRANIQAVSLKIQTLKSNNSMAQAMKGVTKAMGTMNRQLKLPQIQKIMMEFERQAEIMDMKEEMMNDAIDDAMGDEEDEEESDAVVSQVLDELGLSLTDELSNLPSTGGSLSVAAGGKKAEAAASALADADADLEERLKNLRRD
Chain of CHMP2B (Q9UQN3 2-213): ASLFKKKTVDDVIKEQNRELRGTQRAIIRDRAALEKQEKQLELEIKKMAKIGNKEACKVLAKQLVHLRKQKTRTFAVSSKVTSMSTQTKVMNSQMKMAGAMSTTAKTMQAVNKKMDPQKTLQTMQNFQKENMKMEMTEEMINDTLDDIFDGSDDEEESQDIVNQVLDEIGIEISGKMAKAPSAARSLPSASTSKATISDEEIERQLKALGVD

Broadly, the Kd is the free concentration of one partner at which half of the binding sites on the other are occupied at equilibrium, for simple one-to-one binding. Turning to CHMP2A (from UniProt O43633), the dissociation constant Kd is 3.2 µM.
For CHMP2B (from UniProt Q9UQN3), the Kd is 1.4 µM.
